Measurements as given in US20200317736A1.

Biological target: Multidrug transporter EmrE (Escherichia coli (strain K12)) (Escherichia coli (strain K12)) (UniProt P23895)
Experiment: cell-based or functional assay

Sequence of UniProt P23895 (P23895 whole entry): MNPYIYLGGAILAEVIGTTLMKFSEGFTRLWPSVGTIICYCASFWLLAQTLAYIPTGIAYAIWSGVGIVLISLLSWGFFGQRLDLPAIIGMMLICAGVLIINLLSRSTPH

Row | Substance | inhibition of ethidium bromide efflux from E. coli K12 cells (fluorescence decay), peptide 4 uM
1 | A87-I94 (peptide) | 60%
2 | I89-A96 (peptide) | 26%
3 | M92-L99 (peptide) | 68%
